Assay results: patent publication US20230398228A1, “ERIBULIN-BASED ANTIBODY-DRUG CONJUGATES AND METHODS OF USE” (EISAI R&D MANAGEMENT CO., LTD., priority 2016, published 2023)

Legend:
[1] = DAR analysis by LC-MS (UPLC/ESI-MS, reverse-phase LC-MS); details: for DAR (LC-MS): reverse-phase LC-MS
Experimental: ADCs were deglycosylated using PNGase F (New England BioLabs). G7 buffer (10 μL) and PNGase F (2 μL) were added to the mAb (90 μL, 1 mg/mL in DPBS). The reaction was incubated in a Discover microwave (CEM) for 2 cycles: (1) microwave power 10 W, 37° C., 10 min, followed by a 5-min pause; (2) microwave power 2 W, 37° C., 10 min. A portion of the sample was reduced by adding DTT to a final concentration of 20 mM, followed by incubation at 60° C. for 3 min. Samples were then analyzed using a Waters Acquity Ultra Performance Liquid Chromatography (UPLC) and quadrupole time of flight (Q-Tof) Premier mass spectrometer. Samples (0.5-2 μg each) were injected onto a MassPrep™ micro desalting column at 65° C., eluted from the column with a 5 min equilibration in 95% of mobile phase A, a 10 min gradient (5-90% B), and a 10 min re-equilibration in 95% of mobile phase A, at 0.05 mL/min. Mobile phase A was 0.1% formic acid in water. Mobile phase B was 0.1% formic acid in acetonitrile. The Q-Tof mass spectrometer was run in positive ion, V-mode with detection in the range of 500-4000 m/z. The source parameters were as follows: capillary voltage, 2.25 kV (intact antibody)-2.50 kV (reduced antibody); sampling cone voltage, 65.0 V (intact antibody) or 50.0 V (reduced antibody); source temperature, 100° C.; desolvation temperature, 250° C.; desolvation gas flow, 550 L/hr. The protein peak was deconvoluted using the MassLynx® MaxEnt 1 function. Relative intensities of each unconjugated, singly-conjugated, and multiply-conjugated heavy and light chain masses were combined to calculate the overall DAR using the formula:
2[[ILC+1+2(ILC+2)+3(ILC+3)+ . . . n(ILC+n)]/ΣILCtot]+2[[IHC+1+2(IHC+2)+3(IHC+3)+ . . . n(IHC+n)]/ΣIHCtot]
where ILC+1 is mass intensity of light chain conjugated with one cytotoxin, ILC+2 is mass intensity of light chain conjugated with two cytotoxins, etc. IHC are the intensities from the corresponding conjugated heavy chains, and ΣILCtot and ΣIHCtot are the combined intensities of all unconjugated and conjugated light chains and heavy chains, respectively.
DAR was also analyzed using an LC-MS method with a Waters Alliance HPLC with SQD/PDA detection. Samples were injected onto a Proteomix RP-1000 column ([…], 1000A, 4.6 mm×15 cm, Sepax) at 65° C., and eluted with a 3 min equilibration in 25% B, a 27 min linear gradient from 25%-55% B, a 5 min hold at 55% B, a 1 min change to 90% B, a 5 min hold at 90% B, a 1 min change back to 25% B, and a 5 min reequilibration at 25% B. Mobile phase A was 0.1% TFA in water, and mobile phase B was 0.1% TFA in acetonitrile. The elute was then split (10:1) into PDA and SQD detectors. The SQD detector was set up as ES positive, capillary voltage at 3.2 kV, cone voltage at 40 V, extractor at 3 V, and RF lens at 0.2 V, source temperature at 150° C., and desolvation temperature at 250° C. Mass data was acquired at 200-2000 m/z for 40 min, continuum mode, scan time 1 second. Data was analyzed and deconvoluted offline using MassLynx and MaxEnt1. DAR was calculated using the formula:
2[[AUCLC+1+2(AUCLC+2)+3(AUCLC+3)+ . . . n(AUCLC+n)]/[…]]+2[[AUCHC+1+2(AUCHC+2)+3(AUCHC+3)+ . . . n(AUCHC+n)]/ΣAUCHCtot]
where AUCLC+1 is the area under the curve of the light chain peak conjugated with one cytotoxin, AUCLC+2 is the area under the curve of the light chain peak conjugated with two cytotoxins, etc. AUCHC is the area under the curve of the corresponding heavy chains, and ΣAUCLCtot and ΣAUCHCtot are the combined area under the curve of all unconjugated and conjugated light chains and heavy chains, respectively.

[2] = SEC-HPLC aggregation analysis; assay type: physicochemical
Experimental: The antibody aggregation was analyzed by size-exclusion, high-performance liquid chromatography (SEC-HPLC) using an Agilent 1100. The mAb was diluted to 1 mg/mL in DPBS. The antibody (20 μL) was injected onto a TSKgel® SuperSW guard column (4.6 mm×3.5 cm, 4 μm pore size, Tosoh Bioscience), followed by a TSKgel® SuperSW3000 column (4.6 mm×30 cm, 4 μm pore size), eluted from the column with 0.1 M sodium phosphate containing 0.15 M NaCl and 0.05% NaN3, at pH 7.4, at a flow rate of 0.3 mL/min for 20 min. All data were analyzed using Agilent ChemStation software. Percent aggregation was calculated as [PAaggregate/PAtotal]*100, where PA=integrated peak area.
ADC was diluted to 1 mg/mL in DPBS. ADC (10 μL) was then injected onto an Advanced SEC 300A guard column (4.6 mm×3.5 cm, 2.7 μm pore size, Agilent), followed by a AdvancedBio 300A column (4.6 mm×30 cm, 2.7 μm pore size). ADC was eluted from the column with 0.1 M sodium phosphate containing 0.15 M NaCl and 5% IPA, pH 7.4 at a flow rate of 0.25 mL/min for 28 min. All data were analyzed using Agilent ChemStation software. Percent aggregation was calculated as [PAaggregate/PAtotal]*100, where PA=integrated peak area.

[3] = target: human mesothelin (Homo sapiens, UniProt Q13421); experiment: ELISA, mesothelin; assay type: binding; details: MORAb-009 and its ADCs; for EC50: read-out: Antigen Binding ELISA, EC50
Experimental: Recombinant human mesothelin was diluted to 1 μg/mL in coating buffer (50 mM carbonate-bicarbonate buffer, pH 9.6), and coated onto 96-well Maxisorp black plates (Thermo, Cat No. 43711, 100 μL/well) at 4° C., overnight. Coating solution was discarded and the plates were washed three times using 1×PBS with 0.05% Tween-20 (PBST) buffer. Plates were blocked in 300 μL blocking buffer (1% BSA in PBST) at room temperature for 2 hours on an orbital shaker. […] Blocking buffer was discarded and 100 μL/well of diluted antibody was added to the plates. Plates were incubated at room temperature for 2 hours on an orbital shaker. Antibody solution was discarded and plates were washed three times using PBST. 100 μL/well of goat-anti-human IgG (H+L)-HRP (1:10,000 dilution in blocking buffer) solution was added to the plates, and plates were incubated at room temperature for 1 hour on an orbital shaker. Secondary antibody solution was discarded and plates were washed three times using PBST. 100 μL/well of QuantaBlu fluorogenic peroxidase substrate working solution (Thermo, Cat No. 15169) was added to the plates, and plates were incubated at room temperature for 30 min. Fluorescence was read at excitation 325 nm/emission 420 nm using a SpectraMax M5 (Molecular Devices). Data was analyzed using SoftMaxPro 5.4.2 software with 4-parameter fitting.

[4] = test system: IGROV1 cells; experiment: Crystal Violet cytotoxicity assay (Example 4), IGROV1; assay type: cell-based, human; details: mean of replicate experiments, read-out: Cytotoxicity IC50 (nM), IGROV1 (FR^hi, MSLN^neg)
Experimental: (§1) Test reagents were serial diluted 1:3 in 2 mL deep-well dilution plates, starting at 200 nM (10 dilutions total). […] Medium was then discarded. […] Plates were read at 570 nm. Data was analyzed using GraphPad Prism 6.

[5] = test system: A431 cells; experiment: Crystal Violet cytotoxicity assay (Example 4), A431 (parental); assay type: cell-based, human; details: mean of replicate experiments, read-out: Cytotoxicity IC50 (nM), A431 (FR^neg, MSLN^neg)
Experimental: Test reagents were serial diluted 1:3 in 2 mL deep-well dilution plates, starting at 200 nM (10 dilutions total). […] Medium was then discarded. […] Plates were read at 570 nm. Data was analyzed using GraphPad Prism 6. […]
MAL-PEG2-Val-Cit-PAB-eribulin (ER-001159569) was conjugated to eight different anti-human mesothelin antibodies (Table 1). Binding affinities of the parental antibodies were determined by BIAcore analysis, as described above in section 1.6.1. Aggregation levels for all anti-human mesothelin ADCs were determined by SEC-HPLC and the DAR was analyzed using HIC-HPLC. In vitro potency was evaluated using a Crystal Violet cell-based cytotoxicity assay in A3 (A431 stabily transfected with human mesothelin (MSLN), MSLN^hi), OVCAR3 (human ovarian, MSLN^hi), HEC-251 (human endometroid, MSLN^med), H226 (human lung squamous cell mesothelioma, MSLN^lo), and A431 parental (MSLN^neg) cells.

[6] = test system: NCI-H2110 cells; experiment: Crystal Violet cytotoxicity assay (Example 4), NCI-H2110; assay type: cell-based, human; details: mean of replicate experiments, read-out: Cytotoxicity IC50 (nM), NCI-H2110 (FR^med, MSLN^med)
Experimental: as §1

[7] = test system: human BM-MSCs co-cultured with MKN-74 cells; experiment: 3D co-culture system (rStomach, zPredicta), MSC differentiation by flow cytometry; assay type: cell-based; details: 7 days treatment, MORAb-202 10 nM, MORAb-003 10 nM, eribulin […] and 0.2 nM (Table 41)
Experimental: All mesenchymal stem cell (MSC)-containing 3D co-culture experiments were conducted in zPredicta, using organ-specific 3D extracellular matrix systems such as rStomach™. Bone marrow mesenchymal stem cells (BM-MSCs) in rStomach™ were co-cultured with the Nuc Red Light MKN-74 gastric cancer cell line in quadruplicate in 48-well format for 12 days. […] Prior to culture, BM-MSCs were evaluated for target antigen expression and for markers of MSC differentiation (Table 40) by flow cytometry.
Controls included untreated and vehicle-treated (PBS and DMSO) cultures. MSC differentiation was monitored by light microscopy. Once visible differentiation was observed, samples were harvested for staining and flow cytometry analysis.
Bone marrow mesenchymal stem cells (BM-MSCs) in rStomach™ (zPredicta) were co-cultured with the MKN-74 gastric cancer cell line for 12 days. […] Once visible MSC differentiation was observed by light microscopy, samples were harvested for staining and flow cytometry analysis.

[8] = test system: LXFA-737 NSCLC patient-derived xenograft; experiment: NSCLC PDx model LXFA-737; assay type: in vivo, mouse; details: for Tumor Volume / Tumor Growth Inhibition: 5 mg/kg single dose i.v.; for Tumor Growth Inhibition: vehicle = 100
Source text: Tumor implantation: NSCLC tumor fragments were obtained from LXFA-737 tumor xenografts serially passaged in nude mice. After removal from donor mice, tumors were cut into fragments (3-4 mm edge length) and placed in phosphate-buffered saline (PBS) containing 10% penicillin/streptomycin. Recipient animals were anesthetized by inhalation of isoflurane and received unilateral or bilateral tumor implants subcutaneously in the flank. Tumor xenografts were implanted with one or two tumors per mouse at a take rate <65%. In the case of a bilateral take, one of these tumors was explanted prior to randomization. Animals and tumor implants were monitored daily until solid tumor growth was detectable in a sufficient number of animals. At randomization, the volume of growing tumors was determined. […] Animals not used for experiments were euthanized.
Body weight was measured prior to dose on each dosing day, and two times per week during the study. At the end of the study, the terminal body weight was measured and recorded.

Molecule | SEC-HPLC Analysis % Aggr. [2] [%] | SEC-HPLC Analysis % Frag. [2] [%] | SEC-HPLC Analysis % Monomer [2] [%] | Antigen Binding ELISA, EC50 [3] [µg/mL] | EC50 [3] [nM] | IC50 [4] [nM] | IC50 [5] [nM] | DAR (LC-MS) [1] | IC50 [6] [nM] | also measured
COc1cc2cc(c1Cl)N(C)C(=O)C[C@H](OC(=O)C(C)N(C)C(=O)CCSC1CC(=O)N(CC3CCC(C(=O)ON4C(=O)CCC4=O)CC3)C1=O)[C@@H]1O[C@H]1[C@H](C)[C@@H]1C[C@@](O)(NC(=O)O1)[C@H](OC)/C=C/C=C(\C)C2 (stereo partly drawn) [M-DM1] |  |  |  |  |  |  |  |  |  | DAR ([1]; MORAb-003 ADCs, DAR by LC-MS): 3.6; Aggregation (%) ([2]; MORAb-003 ADCs, SEC-HPLC): 1.8%
MORAb009 | 0 | 0 | 100 | 0.0426 | 0.28 |  |  |  |  | 
MORAb009-DBCO-PEG2 eribulin | 1.15 | 0 | 98.85 | 0.0233 | 0.16 | 75.7 | > 100 | 3.07 | 85.7 | 
MORAb009-DBCO-PEG4 VCP eribulin | 0.22 | 0 | 99.78 | 0.0337 | 0.22 | 13 | > 100 | 2.91 | 31.4 | 
MORAb-003: humanized anti-human folate receptor alpha antibody (USAN name: farletuzumab) |  |  |  |  |  |  |  |  |  | Percentage of live cells, Pericytes ([7]; PBS 14.6%): 24.0%; Percentage of live cells, Adipocytes ([7]; PBS […]): 0.69%; Percentage of live cells, MSCs ([7]; PBS […]): 37.1%; Tumor Volume ([8]; Day 21, n = 6): 860.7 mm^3; Tumor Growth Inhibition ([8]; Day 21, n = 6): (85.7) %; Tumor Volume ([8]; Day 32, n = 6): 1572.1 mm^3; Tumor Growth Inhibition ([8]; Day 32, n = 6): (100.7) %; anti-tumor activity, in words ([8]; 5 mg/kg single i.v. dose): did not demonstrate significant anti-tumor activity
